Article PMC6504876, “TFIIE orchestrates the recruitment of the TFIIH kinase module at promoter before release during transcription” (Nature Communications, 2019)

B1: His-TFIIEβ/WT [not stated] / Flag-TFIIEα [not stated] (parent)
chain 1: MDPSLLRERELFKKRALSTPVVEKRSASSESSSSSSKKKKTKVEHGGSSGSKQNSDHSNGSFNLKALSGSSGYKFGVLAKIVNYMKTRHQRGDTHPLTLDEILDETQHLDIGLKQKQWLMTEALVNNPKIEVIDGKYAFKPKYNVRDKKALLRLLDQHDQRGLGGILLEDIEEALPNSQKAVKALGDQILFVNRPDKKKILFFNDKSCQFSVDEEFQKLWRSVTVDSMDEEKIEEYLKRQGISSMQESGPKKVAPIQRRKKPASQKKRRFKTHNEHLAGVLKDYSDITSSK
chain 2: MADPDVLTEVPAALKRLAKYVIRGFYGIEHALALDILIRNSCVKEEDMLELLKFDRKQLRSVLNNLKGDKFIKCRMRVETAADGKTTRHNYYFINYRTLVNVVKYKLDHMRRRIETDERDSTNRASFKCPVCSSTFTDLEANQLFDPMTGTFRCTFCHTEVEEDESAMPKKDARTLLARFNEQIEPIYALLRETEDVNLAYEILEPEPTEIPALKQSKDHAATTAGAASLAGGHHREAWATKGPSYEDLYTQNVVINMDDQEDLHRASLEGKSAKERPIWLRESTVQGAYGSEDMKEGGIDMDAFQEREEGHAGPDDNEEVMRALLIHEKKTSSAMAGSVGAAAPVTAANGSDSESETSESDDDSPPRPAAVAVHKREEDEEEDDEFEEVADDPIVMVAGRPFSYSEVSQRPELVAQMTPEEKEAYIAMGQRMFEDLFE

Variants of: B1
Assay: co-immunoprecipitation (IP of IIEα), immunoblot quantified
Settings: with Flag-TFIIEα, n = 3, means ± s.d., read off a plot

Variant	screen value (150 mM KCl)	screen value (500 mM KCl)
chain 1 MDPSLLRERELFKKRALSTPVVEKRSASSESSSSSSKKKKTKVEHGGSSGSKQNSDHSNGSFNLKALSGSSGYKFGVLAKIVNYMKTRHQRGDTHPLTLDEILDETQHLDIGLKQKQWLMTEALVNNPKIEVIDGKYAFKPKYNVRDKKPLLRLLDQHDQRGLGGILLEDIEEALPNSQKAVKALGDQILFVNRPDKKKILFFNDKSCQFSVDEEFQKLWRSVTVDSMDEEKIEEYLKRQGISSMQESGPKKVAPIQRRKKPASQKKRRFKTHNEHLAGVLKDYSDITSSK [chain 1 A150P]	0.78 a.u.	0.67 a.u.
chain 1 MDPSLLRERELFKKRALSTPVVEKRSASSESSSSSSKKKKTKVEHGGSSGSKQNSDHSNGSFNLKALSGSSGYKFGVLAKIVNYMKTRHQRGDTHPLTLDEILDETQHLDIGLKQKQWLMTEALVNNPKIEVIDGKYAFKPKYNVRDKKALLRLLDQHDQRGLGGILLEDIEEALPNSQKAVKALGYQILFVNRPDKKKILFFNDKSCQFSVDEEFQKLWRSVTVDSMDEEKIEEYLKRQGISSMQESGPKKVAPIQRRKKPASQKKRRFKTHNEHLAGVLKDYSDITSSK [chain 1 D187Y]	0.85 a.u.	0.45 a.u.
